Series [1] has as its target L-fucose isomerase from Raoultella sp. KDH14 (RdFucI) (Raoultella sp. KDH14). The series can be described thus: crystal structure; six subunits in the asymmetric unit; crystals grown in 0.1 M HEPES pH 7.5, 20% (w/v) PEG 10,000 at 20 °C; also soaked with 10 mM Mn2+.
For series [2] the target is unchanged. Kind of series: SEC; analytical size-exclusion chromatography, Superdex 200 10/300 GL, 10 mM Tris-HCl, 200 mM NaCl, pH 8.0; calibrated with standard proteins. (In general: SEC sorts molecules by how far they enter the pores of the column.)
Substrate in series [3]: O=C(CO)[C@H](O)[C@H](O)CO
The series can be described thus: isomerase kinetics, D-ribulose to D-arabinose. The series is classed as biochemical, Klebsiella planticola. The settings on record: 1 mM MnCl2 (general assay); pH and temperature of the kinetics not stated in main text; pH 10.0; 40.0 °C. The protocol:
isomerase kinetics, D-ribulose to D-arabinose on RdFucI | Kinetic parameters were determined using L-fuculose and D-ribulose as the substrates

What is called stoichiometry N is the number of molecules, sites or subunits per partner or assembly. The Km is the substrate concentration at which the rate is half of its maximum. One may read the kcat as the maximal rate divided by the concentration of active sites. Usually kcat/Km stands for the turnover number divided by the Michaelis constant.

As to “L-fucose isomerase from Raoultella sp. KDH14 (RdFucI) (enzyme)”, the stoichiometry N in series [1] and in series [2] was 6 each time.

B1: RdFucI (Klebsiella planticola) (protein)
chain: MKRISLPKIGIRPVIDGRRMGVRESLEEQTMNMAKATAALISEKLRHASGAQIECVIADTCIAGMAESAACEEKFSSQNVGVTITVTPCWCYGSETIDMDPLRPKAIWGFNGTERPGAVYLAAALAAHSQKGIPAFSIYGHDVQDADDTTIPADVEEKLLRFARAGLAVASMKGKSYLSVGGVSMGIAGSIVDHNFFESWLGMKVQAVDMTELRRRIDQKIYDEVELEMALAWADKNFRYGEDQNAQHYKRDEEQSRAVLKESLLMAMCIRDMMQGNKKLAEKGLVEESLGYNAIAAGFQGQRHWTDQYPNGDTAEALLNSSFDWNGVREPFVVATENDSLNGVAMLMGHQLTGTAQVFADVRTYWSPDAVERVTGQPLTGLAEHGIIHLINSGSAALDGSCKQRDEEGKPTMKPHWEISQKEADACLAATEWCPAIHEYFRGGGYSSRFLTEGGVPFTMTRVNIIKGLGPVLQIAEGWSVELPKAMHDQLDARTNSTWPTTWFAPRLTGKGPFADVYSVMANWGANHGVLTIGHVGADFITLAAMLRIPVCMHNVEEGKIYRPSSWSAHGMDTEGQDYRACQNYGPLYKR
notes: N-terminal His6 tag (pET28a, NdeI/EcoRI), E. coli BL21(DE3); tag removal not mentioned; homohexamer
On to B1, for which, in series [3], the Km turned out to be 13.7 ± 1.1 mM, the kcat came to 138 ± 5.69 s⁻¹ and the kcat/Km turned out to be 10100 ± 493 M⁻¹ s⁻¹.
